# Test results from IntAct's records for PubMed 24751834.
# B1: Type VI secretion system spike protein VgrG3 (Vibrio cholerae), Q9KN42 (parent)
# chain: MARLQFQLKVDGLEDESLVVRGFEGQESLSDSVWRCEPCYGFRYQVDLASALSNLTAEQFVDQTAHLTILRDGQVVQQINGIVRQLSKGDTGHRHTFYSLTLVPALERLSLRSNSRIFQQQSVPEIISILLQEMGIEDYAFALKRECAQREFCVQYRETDLQFLHRIAAEEGLVYSHLHEAQKHTLLFTDSSDSQPKLAKPVPYNALAGGEINLPYVVDLQFKTTAQVSHTELKDYSFKKPAYGFTQRTQGKDIAYQQPNYEHFDAPGRYKDDANGKAFSQIRLEYLRRDALLADAKSDEPLLLAGVRFDLQDHLDHAMNRDWLVVQANHQGTQPQALQEEGGSGATTYSNQLKLIPAHITWRARPCAKPQVDGPMIATVVGPQGEEIYCDNFGRVKVHFPWDRYSSSNEKSSCWVRVAQEWAGSQYGSMAIPRVGHEVIVSFLNGDPDQPIITGRTYHATNTAPYALPDHKTKTVLRTETHQGQGYNELSFEDQAGSEQILLHAQKDWDALIEHDHTEVIRHDQHLTVDNDRFTRIQRNQHLTVEGEVRSKIALDSSHEVGASLQHKVGQRIAVEAGKEISLKSGAKIVVEAGAELTLKAGGSFVKVDAGGVHLVGPAINLNAGGSAGSGSAYGGQLAAAPRMLAQAKPVAELVQPDIAASMQSGAARVIDVASLPTMMPSSANNTANDEPVAEEKTPERILKSDLLKPSDELEKLAKRQASAYRQGNHSDEVKLLQEALIKLGFDLGKAGADGDFGSKTKTAIEQFQKSYQPSHQTHPSYSIGAVDGIVGKGTLLALDEALMDGWVYENNIYQIWPLGKTSEKYESAGRGPGVISTGNGDYGGASYGCYQMSSNLGVVQKYIQSSKFKEFFSGLNPATKEFNVVWQDIASRYPQEFREEQHQFIKRTHYDIQIGHLRGKGLLFEHNRAAVHDLIWSTSVQFGGRTNLIFNALNGQNMESMTDKDIIILVQDYKLVNTERLFKSSPSWWSDLKKRAVSEKKALLELEIDGLEVDIK
# partner: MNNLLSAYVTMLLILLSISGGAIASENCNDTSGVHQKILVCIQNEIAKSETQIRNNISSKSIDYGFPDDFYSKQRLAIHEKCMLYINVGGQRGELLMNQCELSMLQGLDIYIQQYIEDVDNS
# Variants of: B1
# Settings: with tsiv3_vibch tsiV3, Q9KN41
row,Variant,effect of a mutation on the interaction
1,Y826A,decreasing interaction

# Variants of: B1
# Settings: with tsiv3_vibch tsiV3, Q9KN41
# Remark: another data set of the same source
row,Variant,effect of a mutation on the interaction
1,Q942A,decreasing interaction

# Variants of: B1
# Settings: with tsiv3_vibch tsiV3, Q9KN41
# Remark: another data set of the same source
row,Variant,effect of a mutation on the interaction
1,V941A,decreasing interaction

# Variants of: B1
# Settings: with tsiv3_vibch tsiV3, Q9KN41
# Remark: another data set of the same source
row,Variant,effect of a mutation on the interaction
1,L982A,decreasing interaction

# Variants of: B1
# Settings: with tsiv3_vibch tsiV3, Q9KN41
# Remark: another data set of the same source
row,Variant,effect of a mutation on the interaction
1,D842A,decreasing interaction

# Variants of: B1
# Settings: with tsiv3_vibch tsiV3, Q9KN41
# Remark: another data set of the same source
row,Variant,effect of a mutation on the interaction
1,R996A,decreasing interaction
